Assay results published in paper PMC7739268 (Journal of molecular biology, 2016).
Like-named read-outs stand apart in the source and are kept apart here. Values belong to the molecule of their own block, whether it stands above or below them.

B1: Recombinant human BMP-6 (ligand, UniProt P22004 375-513, looked up)
chain: SASSRRRQQSRNRSTQSQDVARVSSASDYNSSELKTACRKHELYVSFQDLGWQDWIIAPKGYAANYCDGECSFPLNAHMNATNHAIVQTLVHLMNPEYVPKPCCAPTKLNAISVLYFDDNSNVILKKYRNMVVRACGCH
B6: Recombinant human Activin B (ligand, UniProt P09529 293-407, looked up)
chain: GLECDGRTNLCCRQQFFIDFRLIGWNDWIIAPTGYYGNYCEGSCPAYLAGVPGSASSFHTAVVNQYRMRGLNPGTVNSCCIPTKLSTMSMLYFDDEYNIVKRDVPNMIVEECGCA
B7: BMPRII-Fc (Fc fusion, human, UniProt Q13873 27-136, looked up)
chain: SQNQERLCAFKDPYQQDLGIGESRISHENGTILCSKGSTCYGLWEKSKGDINLVKQGCWSHIGDPQECHYEECVVTTTPPSIQNGTYRFCCCSTDLCNVNFTENFPPPDT

Key:
[1] = molecular target: short-form Cerberus Fc fusion protein (CerS-Fc) (human) (UniProt O95813); assay: SPR
[2] = molecular target: short-form Cerberus, Fc free (CerS) (human) (UniProt O95813); assay: cross-linking
[3] = molecular target: Recombinant human Activin B (human) (UniProt P09529); assay: SPR
[4] = molecular target: Recombinant human Activin B (human) (UniProt P09529); assay: SPR; remark: listed apart in the source
[5] = molecular target: T1, wild-type Cerberus Fc fusion protein (wtCer-Fc) (human, UniProt O95813 18-267); assay: SPR
T1 sequence (looked up): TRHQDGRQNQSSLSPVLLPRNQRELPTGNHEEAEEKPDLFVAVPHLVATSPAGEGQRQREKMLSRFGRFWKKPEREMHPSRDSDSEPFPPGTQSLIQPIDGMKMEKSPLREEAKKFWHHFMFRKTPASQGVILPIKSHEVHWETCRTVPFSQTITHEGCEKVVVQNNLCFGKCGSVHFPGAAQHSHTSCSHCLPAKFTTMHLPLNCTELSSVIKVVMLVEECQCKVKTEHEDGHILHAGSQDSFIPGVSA

[6] = molecular target: T2, mutant Cerberus Fc fusion protein (mutCer-Fc) (human, UniProt O95813 18-267, Arg82Gly | Cys206Ala); assay: SPR
T2 sequence (looked up): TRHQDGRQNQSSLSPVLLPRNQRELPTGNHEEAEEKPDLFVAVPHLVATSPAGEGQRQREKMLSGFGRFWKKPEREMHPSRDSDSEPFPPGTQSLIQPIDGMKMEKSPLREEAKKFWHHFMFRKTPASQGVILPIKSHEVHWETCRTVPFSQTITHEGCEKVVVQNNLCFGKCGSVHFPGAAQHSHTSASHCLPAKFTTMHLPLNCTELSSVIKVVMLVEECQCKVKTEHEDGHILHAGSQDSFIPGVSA

[7] = molecular target: B6; assay: SPR
Recombinant human BMP-6 [8] = molecular target: B1; assay: SPR
[9] = molecular target: B6; assay: SPR; remark: listed apart in the source
Recombinant human BMP-6 [10] = molecular target: B1; assay: SPR; remark: listed apart in the source
SEC = molecular target: the molecule itself; assay: SEC
BMPRII-Fc = molecular target: B7; assay: SPR
[11] = molecular target: B6; assay: SPR; remark: listed apart in the source
Recombinant human BMP-6 [12] = molecular target: B1; assay: SPR; remark: listed apart in the source

Molecule: Recombinant human BMP-6 (from UniProt P22004 375-513) (ligand)
- Kd [1]: 15.2 nM
- koff [1]: 0.0012 s⁻¹

Molecule: B1
- Kd [5]: 19.1 ± 2.5 nM
- koff [5]: 0.0011 s⁻¹
- kon [5]: 55000 M⁻¹ s⁻¹
- Kd [6]: 14.7 ± 3.6 nM
- koff [6]: 0.001 s⁻¹
- kon [6]: 70000 M⁻¹ s⁻¹

B2: wild-type Cerberus, Fc free (wtCer) (natural protein, human, UniProt O95813 18-267, looked up)
chain: TRHQDGRQNQSSLSPVLLPRNQRELPTGNHEEAEEKPDLFVAVPHLVATSPAGEGQRQREKMLSRFGRFWKKPEREMHPSRDSDSEPFPPGTQSLIQPIDGMKMEKSPLREEAKKFWHHFMFRKTPASQGVILPIKSHEVHWETCRTVPFSQTITHEGCEKVVVQNNLCFGKCGSVHFPGAAQHSHTSCSHCLPAKFTTMHLPLNCTELSSVIKVVMLVEECQCKVKTEHEDGHILHAGSQDSFIPGVSA
- IC50 [7]: 26.2 ± 1.7 nM
- IC50 (Recombinant human BMP-6 [8]): 319 ± 53.4 nM
- IC50 [9]: 14.9 ± 4.2 nM
- IC50 (Recombinant human BMP-6 [10]): 156 ± 9.2 nM

B4: Recombinant human BMP-7 (ligand, UniProt P18075 293-431, looked up)
chain: STGSKQRSQNRSKTPKNQEALRMANVAENSSSDQRQACKKHELYVSFRDLGWQDWIIAPEGYAAYYCEGECAFPLNSYMNATNHAIVQTLVHFINPETVPKPCCAPTQLNAISVLYFDDSSNVILKKYRNMVVRACGCH
- Kd [5]: 17.3 ± 0.8 nM
- koff [5]: 0.0028 s⁻¹
- kon [5]: 160000 M⁻¹ s⁻¹
- Kd [6]: 9.8 ± 0.9 nM
- koff [6]: 0.0012 s⁻¹
- kon [6]: 130000 M⁻¹ s⁻¹

Molecule: B6
- Kd [5]: 0.096 ± 0.01 nM
- koff [5]: 0.00022 s⁻¹
- kon [5]: 2.3e+06 M⁻¹ s⁻¹
- Kd [6]: 0.016 ± 0.003 nM
- koff [6]: 3.1e-05 s⁻¹
- kon [6]: 2e+06 M⁻¹ s⁻¹

Molecule: B7
- binding result [11]: binds
- binding result (Recombinant human BMP-6 [12]): binds

Now from value to molecule, other results behind:

- Kd [1]: 15.6 nM
- koff [1]: 0.0021 s⁻¹
- kon [1]: 140000 M⁻¹ s⁻¹
Molecule: Recombinant human BMP-7 (from UniProt P18075 293-431) (ligand)

- stoichiometry N [2]: 2
- IC50 [3]: 261 nM
- percent reduction of Activin B binding to ActRIIA at 50 nM [3]: 10%
- IC50 [4]: 28.4 nM
Molecule: short-form Cerberus, Fc free (CerS) (from UniProt O95813 18-267) (domain or fragment)

- IC50 [7]: 40.1 ± 2.5 nM
- IC50 (Recombinant human BMP-6 [8]): 350 ± 96.1 nM
- IC50 [9]: 7.4 ± 1.1 nM
- IC50 (Recombinant human BMP-6 [10]): 48.3 ± 3.5 nM
B3: mutant Cerberus, Fc free (mutCer) (natural protein, human, UniProt O95813 18-267, looked up)
chain: TRHQDGRQNQSSLSPVLLPRNQRELPTGNHEEAEEKPDLFVAVPHLVATSPAGEGQRQREKMLSGFGRFWKKPEREMHPSRDSDSEPFPPGTQSLIQPIDGMKMEKSPLREEAKKFWHHFMFRKTPASQGVILPIKSHEVHWETCRTVPFSQTITHEGCEKVVVQNNLCFGKCGSVHFPGAAQHSHTSASHCLPAKFTTMHLPLNCTELSSVIKVVMLVEECQCKVKTEHEDGHILHAGSQDSFIPGVSA
- stoichiometry N (SEC): 2

- binding result (BMPRII-Fc): binds
B5: Recombinant human Nodal (ligand, UniProt Q96S42 238-347, looked up)
chain: HHLPDRSQLCRKVKFQVDFNLIGWGSWIIYPKQYNAYRCEGECPNPVGEEFHPTNHAYIQSLLKRYQPHRVPSTCCAPVKTKPLSMLYVDNGRVLLDHHKDMIVEECGCL
